Test results reported in publication PMC11944484, “Metronidazole Activation by a Deeply Entangled Dimeric Malic Enzyme in Entamoeba histolytica” (Pathogens, 2025).

T1: EhME (Entamoeba histolytica malic enzyme; rEhME) (Entamoeba histolytica, UniProt Q9NH04)
T1 construct: gene CL6EHI_044970; full-length ORF in pQE30, N-terminal His6 tag (cleavage not mentioned), expressed in E. coli M15; Ni-NTA and Superdex 200; apparent 53 kDa; entangled homodimer with composite active site
T1 sequence (Q9NH04 1-487): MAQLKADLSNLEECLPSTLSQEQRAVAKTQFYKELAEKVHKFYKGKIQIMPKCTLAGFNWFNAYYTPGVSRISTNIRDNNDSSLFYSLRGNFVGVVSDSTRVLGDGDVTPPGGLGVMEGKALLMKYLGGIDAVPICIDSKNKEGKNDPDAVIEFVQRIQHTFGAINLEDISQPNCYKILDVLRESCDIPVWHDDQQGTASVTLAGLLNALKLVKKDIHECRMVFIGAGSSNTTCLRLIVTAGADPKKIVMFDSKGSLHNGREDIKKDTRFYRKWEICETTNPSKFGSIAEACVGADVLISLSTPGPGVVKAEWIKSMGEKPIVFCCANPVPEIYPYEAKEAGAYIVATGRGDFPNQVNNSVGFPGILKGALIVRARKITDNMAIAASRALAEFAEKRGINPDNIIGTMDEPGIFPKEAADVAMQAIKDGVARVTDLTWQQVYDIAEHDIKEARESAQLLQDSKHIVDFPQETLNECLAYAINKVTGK


Assays:
[1] = molecular target: T1, EhME (Entamoeba histolytica malic enzyme; rEhME); assay: NADPH formation at […] nm, inhibition kinetics; assay type: biochemical
[2] = substrate: O=C(O)C[C@H](O)C(=O)O; assay: purified protein; assay type: biochemical, Entamoeba histolytica; settings: NADP+ at saturation, L-malate varied 5-15 mM, 5 mM MnCl2, 50 mM Tris-Cl pH 7.4, 30 °C, apparent Km
[3] = substrate: NC(=O)c1ccc[n+]([C@@H]2O[C@H](COP(=O)(O)OP(=O)(O)OC[C@H]3O[C@@H](n4cnc5c(N)ncnc54)[C@H](OP(=O)(O)O)[C@@H]3O)[C@@H](O)[C@H]2O)c1; assay: purified protein; assay type: biochemical, Entamoeba histolytica; settings: L-malate at saturation, NADP+ varied 0.1-0.5 mM, 5 mM MnCl2, 50 mM Tris-Cl pH 7.4, 30 °C, apparent Km, varied: cofactor
[4] = molecular target: the molecule itself; assay: SEC; gel filtration chromatography of purified EhME; conditions of the analysis not told apart from the purification step (Superdex 200, 10 mM Tris, 150 mM NaCl, 10 mM DTT, pH 8.0)

Row | Molecule | Ki [1] [µM] | Km [2] [µM] | kcat [2] [s⁻¹] | Km [3] [µM] | kcat [3] [s⁻¹] | stoichiometry N [4]
1 | Nc1ncnc2c1ncn2[C@@H]1O[C@H](COP(=O)(O)OP(=O)(O)OP(=O)(O)O)[C@@H](O)[C@H]1O [ATP] | 650 | – | – | – | – | –
2 | Entamoeba histolytica malic enzyme (enzyme, UniProt Q9NH04 1-487, looked up, Entamoeba histolytica malic enzyme, gene PCR-amplified from genomic DNA with primers from the ATG start codon to the stop codon; cloned into pQE30; Homodimer with two interlocked (knotted) protomers; also called EhME; rEhME; source: E. coli M15 (pQE30), purified (Ni-NTA, Superdex 200 gel exclusion chromatography)) MAQLKADLSNLEECLPSTLSQEQRAVAKTQFYKELAEKVHKFYKGKIQIMPKCTLAGFNWFNAYYTPGVSRISTNIRDNNDSSLFYSLRGNFVGVVSDSTRVLGDGDVTPPGGLGVMEGKALLMKYLGGIDAVPICIDSKNKEGKNDPDAVIEFVQRIQHTFGAINLEDISQPNCYKILDVLRESCDIPVWHDDQQGTASVTLAGLLNALKLVKKDIHECRMVFIGAGSSNTTCLRLIVTAGADPKKIVMFDSKGSLHNGREDIKKDTRFYRKWEICETTNPSKFGSIAEACVGADVLISLSTPGPGVVKAEWIKSMGEKPIVFCCANPVPEIYPYEAKEAGAYIVATGRGDFPNQVNNSVGFPGILKGALIVRARKITDNMAIAASRALAEFAEKRGINPDNIIGTMDEPGIFPKEAADVAMQAIKDGVARVTDLTWQQVYDIAEHDIKEARESAQLLQDSKHIVDFPQETLNECLAYAINKVTGK | – | 570 ± 80 | 41.7 | 46.67 ± 6.0 | 14.57 | 2
